The nanobody polyreactivity screen of Harvey et al. (2022)

Assay: yeast display, Sf9 membrane polyspecificity reagent, FACS + sequencing; frameworks hold sequencing errors
Outline: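 Sorting gates, low and high (top ~1%), were placed on anti-HA fluorescence to track expression and on streptavidin fluorescence to track reagent binding. A clone's polyreactivity label is taken from the gate it came out of. The reagent was 10% biotinylated, detergent-solubilized Sf9 membrane, applied for 1 hour at 4 °C to galactose-induced yeast display cells.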

Row | Sequence | polyreactivity (PSR sort gate)
1 | QVQLVESGGGLVQAGGSLRLSCAASGRTFYAYAMGWYRQAPGKERELVAVITRSGGRTNYADSVKGRFTISRDNAKNTVYLQMNSLKPEDTAVYYCAARADWRQVSFYYWGQGTQVTVSS | high polyreactivity
2 | QVQLVESGGGLVQAGGSLRLSCAASGSILYIYAMGWYRQAPGKERELVASINSGGSTYYADSVKGRFTISRDNAKNTVYLHMYSLKPEDTGVYYCAKQGVDYWGQGTQVTVSS | low polyreactivity
3 | QVQLVESGGGLVQAGGSLRLSCAASGRTFDYYAMGWYRQAPGKERELVAAITLSAGRTYYADSVKGRFTISRDNAKNTVYLQMNSLKPEDTAVYYCAARFRRLQRFYYWGQGTQVTVSS | high polyreactivity
4 | QVQLVESGGGLVQAGGSLRLSCAASGYNFRHYVMGWYRQAPGKERELVAAITYSGGSTYYADSVKGRFTISRDNAKNTVYLQMNSLKPEDTAVYYCAARRRRSDPYDFWGQGTQVTVSS | high polyreactivity
5 | QVQLVESGGGLVQAGGSLRLSCAASGRIFYYYAMGWYRQAPGKERELVAVISRGGRTKYADSVKGRFTISRDNAKNTVYLQMNSLKPEDTAFYYCAAYPSYYGDSGLRYDYWGQGTQVPVSS | high polyreactivity
6 | QVELVESGGGLVQGGGTLRLSCAASGRTFNRYAMGWYRQAPGKERELVASITRSGGSTYYADSVKGRFTISRENAKNTVSLQMNSLKPDHTAVYYCANRSSGCFGYWGQGTQVTLSS | high polyreactivity
7 | QVQLVESGGGLVQAGGSLRLSCAASGLTFYPNAMGWYRPAPGKEREFVASISISGRTYYADSVKGRFTISRDNAKNTVYLQMNSLKPEDTAVYYCAARYVRSGLYRKYDYWGQGTQVTVSS | high polyreactivity
8 | QVQLVESGGGLVQAGGSLRLSCAASGSIFYIYAMGWYRPAPGKEREFVAAITWTGGSTYYADSVKGRFTISRDNAKNTVYLQMNSLKPEDTAVYYCARATVGAWRKMYSWGQGTQVTVSS | high polyreactivity
9 | QVQLVESGGGLVQAGGSLRLSCAASGTIFYIYAMGWYRQAPGKERELVAAITWRGGRTYYADSVKGRFTISRDNAKNTVYLQMNSLKPEDTAVYYCAALYANYYYRYEYWGQGTQVTVSS | high polyreactivity
10 | QVQLVESGGGLVQAGGSLRLSCAASGSIFQYNVMGRYRQEPGKEREFVADISSSGGSTYYADSVKGRFTISRDNAKNTVYLQMNSLKPEATAVYYCNARSKVAYDRHYYWGQGTQVTVSS | low polyreactivity
11 | QVQLVESGGGLVQAGGSLRLSCAASGFIFFYAMGWYRQAPGKERELVASIDSGVSTDYADSVKGRFTISRDNAKNTVYLQMNSLTPEDTAVYYCAADPWSSLNYDYWGQGTQVTVSS | low polyreactivity
12 | QVQLVESGGGLVQAGGSLRLSCAASGRTFSQYAMGWYRQAPGKERELVAAISRGGGSTYYADSVKGRFTISRDNAKNTVYLQMNSLKPEDTAVYYCARATYFYYPFGSWGQGTQVTVSS | high polyreactivity
13 | QVQLVESGGGLVQAGGSLRLSCAASGRTFEGNAMGWYRQAPGKERELVAAISGSGGRTYYADSVKGRFTISRDNAKNTVYLQMNSLKPEDTAVYYAKLYSVYNPWRFNYWGQGTQVTVSS | high polyreactivity
14 | QVQLVESGGGLVQAGGSLRLSCAASGRTFRYYAMGWYRPAPGKERELVAAITSGGSTYYADSVKGRFTISRDNAKNTVYLQMNSLKPEDTAVYYCNKDFTRTWTRHGDDYWGQGTQVTVSS | high polyreactivity
15 | QVQLVESGGGLVQAGGSLRLSCAASGRIFGYYAMGWYRQAPGKEREWVAAMSTNGGTTYYAYSVKGRFTISRDNAKNTVYLQMNSLKPEDTAVYYCAATYTVPGHARYDYWGQGTQVTVSS | low polyreactivity
16 | QVQLVESGGGLVQAGGSLRLSCAASGRISAYYAMGWYRQAPGKERELVAVITSGGRTNYADSVKGRFTISRDNAKNTVYLQMNSLKPEDTAVYYCAARSRVSPRYDYWGQGTQVTVSS | high polyreactivity
17 | QVQLVESGGGLVQAGGSLRLSCAASGSTFWYYAMGWYRQAPGKERELVAAITSSGSTYYADSVKGRFTISRDNAKNTVYLQMNRLKPEDTAVYYCAAEQWYCYGSYDYWGQVTQVTVSS | high polyreactivity
18 | QVQLVESGGGLVQAGGSLRLSCAASGFTFDVYAMGWYRQAPGKERELVAAIDSGGSTNYADSVKGRFTISRDNAKNTVYLQMNSLKPEDTAVYYCAAPFVGSVVIRRWDEYDYWGQGTQVTVSS | low polyreactivity
19 | QVQLVESGGGLVQAGGSLRLSCDASGIIFFIYTMGWYRQAPGKERELVAVITRGGRTKYADSVKGRLTISRDNAKNTVFLQMNRLNPEDNAVYYCAAKGSRSYYWGQGTHVTVSS | low polyreactivity
20 | QVQLVESGGGLVQAGGSLRLSCAASGRTFYDYAMGWYRQAPGKERELVAAITYSGGSTFYADSVKGRFTISRDNAKNTVYLQMNSLKPEDTAVYYCAAEVLLLVGAAEYDYWGQGTQVTVSS | low polyreactivity
21 | QVQLVESGGGLVQAGGSLRLSCAASGRIFRGYVMGWYRQAPGKERELVAITIGAGRTYYADSVKGRFTISRDNAKNTVYLQMISLKPEDTAVYYFAVRLYANSGRFDYWGQGTQVTVSS | low polyreactivity
22 | QDQLVESGGGLVQAGGSLRLICAASGSIFTFYDMGWYRQAAGNERELVAAISSGGSTTYADSVKGRFTISRDNAKNTVYLQMNSLKPEDTAFYYCAADSQPYLYPVEYDYWRQGTQVTVSS | low polyreactivity

Row | Sequence | polyreactivity (PSR sort gate)
23 | QVQLVESGGGLVQAGGSLRLSCAASGSTFTYYTMGWYRQAPGKERELVAAISRTTGSTYYADSVKGRFTISRDNAKNTVYLQLNSLKPEDTAVDYCAAQSYKILLYFIGTAGDGYWGQGTQVTVSS | low polyreactivity
24 | QVQLVESGGGLVQAGGSLRLSCAASGSTFSRNAMGWYRQAPGKERELVAAISWRGGRTYYADSVKGRFTISRDNAKNTVYLQMNRLKPEDTAVYYCAAEHKYRYDYWGQGTQVTVSS | low polyreactivity
25 | QVQLEESGGGLVQAGGSLRLSCAASGSIFSQYAMGWYRQAPGKERELVASITWRGGRTYYADSVKGRFTISRDNAKNTVYLQMNSLKPEDTAVYYCNRVYGAHHYYYGIGTYDYWGQGTQVTVSS | high polyreactivity
26 | QVQLVESGGGLVQGGGSLRLSCAASGSIFTRNAMGWYRQAPGKEREFVAAISSSGVSTYYADSVKGRFTISRDNAKNTVYLQMNSLKPEDTALYYCAARWGTKSGRYDYWGQGTQVTVSS | high polyreactivity
27 | QVQLVESGGGLVQAGGSLRLSCAASGIIFDAYGMGWYRQAPGKEMELVAAINTVGSTNYADSVKGRFTISRDNAKNTVYLQMNSLKPEDTAVYYCAADSYFYDPYDYWGQGTQVTVSS | low polyreactivity
28 | QVQLVESGGGLVQAGGRLRLSCAASGSTFGAYAMGWYRQAPGKERELVAAIRGSGAGTYYADSVKGRFTISRDNAKNTVYLQMNSLKPEDTAVYYCNTANLRSLGWTFRRYSYEYWGQGTQVTVSS | high polyreactivity
29 | QVQLVESGGGLVQAGGSLRLSCAASGSTFYQYAMGWYRQAPGKERELVAVITGSGGSTYYADSVKGRFTISRDNAKNTVYLQMNSLKPEDTAVYYCAAGARYFIYRTTSLGGNYWGQGTQVTVSS | high polyreactivity
30 | QVQLVESGGGLVQAGGSLRLSCAASGITFPGYAMGWYRQAPGKERELVAVIRKSGTSTGGNTYYADSVKGRFTISRDNAKNTVYLQMNSLKPEDTAVYYCAKKYVWTHNYWGQGTQVTVSS | low polyreactivity
31 | QVQLVESGGGLDQAGGSLRLSCAASGSIFVGYAMGWYRQAPGKERELVASINYSGGTTDYADSVKGRFTISRDNAKNTVYLQMHSLKPEDTAVYYCAKTAVDCSFTKGVDYDYWGQGTQVTVSS | low polyreactivity
32 | QVQLVESGGGLVQAGGSLRLSCAASAIILQRNDMGRYRQAPGKERELVANIRDGGITFADSVKGRFTISRDNAKNTVYLQMNSLKPEDTAVYYCARDDTSPGYGDQSSNAAYYYWGQGTQVTVSS | low polyreactivity
33 | QVQLVESGGGLVQAGGSLRLSSAASGRIFSYNAMGWYRQAPGKERELVASISYSGTSTYYADSVKGRFTISRDNAKNTVYLQMNRLKPEDTAVYYCAALSRRRFGYWGQGTQVTVSS | high polyreactivity
34 | QVQLVESGGGLVQAGGSLRLSCAASGYIFDYNAMGWYRQAPGKERELVAAITFRDGSTYADSVKGRFTISRDNAKNTVYLQMNSLKPEDTAVYYCNRRSQVHSHSKHDYWGQGTLVTVSS | low polyreactivity
35 | QVQLVESGGGLVQAGGSLRLSCAASGRTIRAYTMGWYRQAPGNERELVAAISTPGGSTYYADSVKGRFTISRDNAKNTVYLQLNSLKPEDTAVYYCAADYGGPITGYEYWGQGTQVTVSS | low polyreactivity
36 | QVQLVESGGGLVQAGGSLRLSCAASGFIFYTKAMGWSRQAPGKERELVATITTSGGRTYYADSVKGRFTISRDNAKNYVYLQMYSMKPEDTAFYYSATRYVVIEYDYWGQGTQVTVSS | low polyreactivity
37 | QVQLVESGGGLVQAGGSLRLICAASGFIFGAYTMGWYRQAPGKERELVADISRRGGTTYYADSVKGRFTISRDNAKNTVYLQMISLKPEDTAVYYCAKVANFWYITTLRGYYYWGQGTQVTVSS | high polyreactivity
38 | QVQLVESGGGLVQAGGSLRLSCAASGRTIRYNALGWYREARGKERELVASIRRGGSTNYADSVKGRCTISRDNAKNPVYLHMNSLKPEDTAVSYCAAAGGGVRKVWGGSRYGYWGQGTQVTVSS | high polyreactivity
39 | QVQLVESGGGLVQAGGSLRLSCAASGRTFSANAMGWYRQAPGTEREGVATMTVRGGSTNYADSVKGRFTISRDNAKNTVYLQMNSLKPEDTAVYYCNAYVNSNVRWAYWGFDYCGQGTQVTVSS | high polyreactivity
40 | QVQLVESGGGLVQAGGSLRLSCAASGSTFFDYAMGWYRQAPGKVRELVAVISDGGTTTYADSVKGRFTISRDNAKNTVYLQMNSLKPEDTAVYYCAAENQDGLLVILGGYGYWGQGTQVTVSS | low polyreactivity
41 | QVQLVESGGGLVQAGGSLRLSCAASGSIFRPYAMGWYRQAPGKERELVAAISDSGGSTYYADSVKGRFTISRDNAKNTVYLQMNSLKPEDTAVYYCNAYSVWYYLASVLEVDYWGQGTQVTVSS | low polyreactivity
42 | QVQLVESGGRLVQAGGSLRLSCAASGSIFGWYAMGWYRQAPGKESEFVASISVTAGSTYYADSVKWRFTISRDNAKNTVYLQMNSLKPEDTAVFYCAADDYTADAVQRFYYWGQGTQVTVSS | low polyreactivity
43 | QVQLVESGGGLVQAGGSLRLSCAASGSIFYYYAMGWYRQAPGKERELVAAITYRGTRTYYADSVKGRFTISRDNAKNTVYLLMNSLKPEDTAVYYCAAERRIYSSDSWGQGTQVTVSS | high polyreactivity
